From US20060216303A1

Biological target: bacterial fusion protein 11-2 (a hybrid of b-galactosidase and human mammary mucin) (human) (UniProt P15941)
Experiment: reciprocal of the competitor concentration giving 50% binding; competition radioimmunoassay on 11-2 fusion protein

Ka | Binder
2.68e+08 M⁻¹ | murine-human chimeric BrE-3 antibody (antibody, V domains shown) VH: EVKLEESGGGLVQPGGSMKLSCAASGFTFSDAWMDWVRQSPEKGLEWVAEIRNKANNHATYYDESVKGRFTISRDDSKSRVYLQMISLRAEDTGLYYCTGEFANWGQGTLVTVSA VL: DVVMTQTPLSLPVSLGDQASISCRSSQNLVHNNGNTYLYWFLQKSGQSPKLLIYRASIRFSGVPDRFSGSGSETDFTLKISRVEAEDLGVYFCFQGTHVPWTFGGGTKLEIK
3.75e+08 M⁻¹ | murine BrE-3 monoclonal antibody (antibody, V domains shown) VH: EVKLEESGGGLVQPGGSMKLSCAASGFTFSDAWMDWVRQSPEKGLEWVAEIRNKANNHATYYDESVKGRFTISRDDSKSRVYLQMISLRAEDTGLYYCTGEFANWGQGTLVTVSA VL: DVVMTQTPLSLPVSLGDQASISCRSSQNLVHNNGNTYLYWFLQKSGQSPKLLIYRASIRFSGVPDRFSGSGSETDFTLKISRVEAEDLGVYFCFQGTHVPWTFGGGTKLEIK
